T1: mouse IgG1 Fc-mature human GDF15 fusion protein (mFc-rhGDF15) (mouse; human)
T1 construct: Made in CHOK1SV cells, purified by Protein A and size exclusion; also called mouse Fc fused to human GDF15
T1 chain: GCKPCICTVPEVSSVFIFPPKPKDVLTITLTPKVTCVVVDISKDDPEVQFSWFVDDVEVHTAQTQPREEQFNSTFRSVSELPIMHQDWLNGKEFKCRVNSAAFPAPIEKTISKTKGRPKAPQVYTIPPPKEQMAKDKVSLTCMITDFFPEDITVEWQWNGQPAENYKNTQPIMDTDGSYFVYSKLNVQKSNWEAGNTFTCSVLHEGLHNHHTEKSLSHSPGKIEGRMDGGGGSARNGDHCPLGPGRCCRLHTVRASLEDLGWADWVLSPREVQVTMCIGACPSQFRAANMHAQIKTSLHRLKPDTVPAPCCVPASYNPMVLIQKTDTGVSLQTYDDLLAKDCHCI

T2: cleaved-rhGDF15 (human, UniProt Q99988 197-308)
T2 sequence: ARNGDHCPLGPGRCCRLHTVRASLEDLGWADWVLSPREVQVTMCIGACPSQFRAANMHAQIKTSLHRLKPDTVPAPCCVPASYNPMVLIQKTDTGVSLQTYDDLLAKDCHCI

T3: rabbit IgG1 Fc-mature mouse GDF15 fusion protein (rFc-rmGDF15) (rabbit; mouse)
T3 construct: also called rabbit Fc mature recombinant mouse GDF15
T3 chain: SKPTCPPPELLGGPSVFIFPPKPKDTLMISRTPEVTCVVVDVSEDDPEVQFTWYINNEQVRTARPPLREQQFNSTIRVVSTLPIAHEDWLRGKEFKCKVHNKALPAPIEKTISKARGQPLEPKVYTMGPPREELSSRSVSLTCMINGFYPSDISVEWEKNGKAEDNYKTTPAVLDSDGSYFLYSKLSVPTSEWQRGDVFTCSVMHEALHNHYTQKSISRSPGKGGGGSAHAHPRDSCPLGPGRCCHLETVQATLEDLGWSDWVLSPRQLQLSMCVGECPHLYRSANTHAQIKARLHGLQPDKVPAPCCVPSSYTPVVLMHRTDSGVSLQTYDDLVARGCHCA

T4: mouse Fc mature recombinant cynomolgus monkey GDF15 (mFc-rcGDF15) (mouse; cynomolgus monkey, UniProt G7PWZ3 193-308)
T4 construct: mature; not shown: mouse Fc and any linker
T4 sequence (looked up): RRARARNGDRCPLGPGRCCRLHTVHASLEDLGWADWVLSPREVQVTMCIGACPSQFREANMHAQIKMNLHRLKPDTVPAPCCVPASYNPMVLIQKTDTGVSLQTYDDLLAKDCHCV


Tests used:
[1] = molecular target: T1, mouse IgG1 Fc-mature human GDF15 fusion …; assay: BLI Octet QK, 30 C, antibody from supernatant on anti-human Fc sensor, 400 nM mFc-rhGDF15
Procedure: The Octet analysis was performed at 30° C. using 1× Kinetics Buffer (ForteBio, Inc.) as assay buffer. Anti-human IgG Fc Capture (AHC) biosensors (ForteBio, Inc.) were used to capture human antibodies onto the sensors. Sensors were saturated in assay buffer for at 300 seconds before the assay. […] Baseline was established by dipping the sensors into 1× assay buffer for 200 seconds. Next, association was monitored for 220 seconds in 400 nM mFc-rhGDF15 protein, and dissociation was followed for 600 seconds in buffer alone.
Kinetic parameters of the antibody, kₐ, kd, and KD were determined.

[2] = molecular target: T1, mouse IgG1 Fc-mature human GDF15 fusion …; assay: SPR Biacore T100, 37 C, purified antibody captured by anti-human IgG Fc, antigen in solution
Procedure: (§1) Goat anti-human IgGs (Fc fragment specific, Jackson ImmunoResearch, West Grove, Pa.) were immobilized on carboxymethylated dextran CM4 sensor chips by amine coupling, according to a standard protocol. Analyses were performed at 37° C. using PBS containing 0.05% surfactant P20 as running buffer. The antibodies were captured in individual flow cells at a flow rate of 10 μL/minute. Injection time was varied for each antibody to yield an Rmax between 30 and 60 RU. […] The dissociation phase was monitored for up to 1200 seconds. The surface was then regenerated with two 60-second injections of 10 mM Glycine-HCl, pH 2.25, at a flow rate of 30 μL/minute.
Kinetic parameters were determined using the kinetic function of the BIAevaluation software (GE Healthcare) with double reference subtraction.

cleaved-rhGDF15 = molecular target: T2, cleaved-rhGDF15; assay: as above
Procedure: as §1, with “1500” for “1200”
(§2) Kinetic parameters were determined using the kinetic function of the BIAevaluation software (GE Healthcare) with double reference subtraction. Kinetic parameters for each antibody, kₐ (association rate constant), kd (dissociation rate constant), and KD (equilibrium dissociation constant) were determined Kinetic values of purified monoclonal antibodies on mFc-rhGDF15, mature human GDF15, rFc-rmGDF15, and mFc-rcGDF15 are summarized in Table 27.

[3] = molecular target: T3, rabbit IgG1 Fc-mature mouse GDF15 …; assay: as above
Procedure: as §1, with “1500” for “1200”
as §2

[4] = molecular target: T1, mouse IgG1 Fc-mature human GDF15 fusion …; assay: as above
Procedure: as §1, with “1500” for “1200”
as §2

[5] = molecular target: T4, mouse Fc mature recombinant cynomolgus …; assay: as above
Procedure: as §1, with “1500” for “1200”
as §2

Binder | Kd [1] | koff [1] | kon [1] | Kd [2] | koff [2] | kon [2] | Kd (cleaved-rhGDF15) | koff (cleaved-rhGDF15) | kon (cleaved-rhGDF15) | Kd [3] | koff [3] | kon [3] | Kd [4] | koff [4] | kon [4] | Kd [5] | koff [5] | kon [5]
Hu14F11-1 (antibody, human IgG1, kappa, Mouse variable regions, human IgG1 and kappa constant regions; also called Chimeric 14F11) heavy: not shown light: DIVMTQSQKFMSTSVGDRVSVTCKASQNVGTNVAWYQQKPGQSPKALIYSPSYRYSGVPDRFTGSGSGTDFTLTISNVQSEDLAEYFCQQYNSYPHTFGGGTKLEMKRTVAAPSVFIFPPSDEQLKSGTASVVCLLNNFYPREAKVQWKVDNALQSGNSQESVTEQDSKDSTYSLSSTLTLSKADYEKHKVYACEVTHQGLSSPVTKSFNRGEC | 0.032 nM | 1.9e-05 s⁻¹ | 630000 M⁻¹ s⁻¹ | 0.16 nM | 0.00046 s⁻¹ | 3e+06 M⁻¹ s⁻¹ |  |  |  |  |  |  |  |  |  |  |  | 
Hu14F11-23 (antibody, human IgG1, kappa, Chimeric 06C11 heavy chain with chimeric 14F11 light chain, human IgG1 kappa; tested in supernatant; also called chimeric light 14F11 with chimeric heavy 06C11) heavy: not shown light: DIVMTQSQKFMSTSVGDRVSVTCKASQNVGTNVAWYQQKPGQSPKALIYSPSYRYSGVPDRFTGSGSGTDFTLTISNVQSEDLAEYFCQQYNSYPHTFGGGTKLEMKRTVAAPSVFIFPPSDEQLKSGTASVVCLLNNFYPREAKVQWKVDNALQSGNSQESVTEQDSKDSTYSLSSTLTLSKADYEKHKVYACEVTHQGLSSPVTKSFNRGEC | 0.18 nM | 6.2e-05 s⁻¹ | 340000 M⁻¹ s⁻¹ |  |  |  |  |  |  |  |  |  |  |  |  |  |  | 
Hu14F11-24 (antibody, human IgG1, kappa, Chimeric 14F11 heavy chain with chimeric 06C11 light chain, human IgG1 kappa; tested in supernatant; also called chimeric light 06C11 with chimeric heavy 14F11) heavy: not shown light: DIVMTQSQKFMSTSVGDRVSVTCKASQNVGTNVAWFQQKPGQSPKALIYSASYRYSGVPDRFTGSGSGTDFILTISNVQSEDLAEYFCQQYNNYPLTFGAGTKLELKRTVAAPSVFIFPPSDEQLKSGTASVVCLLNNFYPREAKVQWKVDNALQSGNSQESVTEQDSKDSTYSLSSTLTLSKADYEKHKVYACEVTHQGLSSPVTKSFNRGEC | 0.31 nM | 0.00022 s⁻¹ | 710000 M⁻¹ s⁻¹ |  |  |  |  |  |  |  |  |  |  |  |  |  |  | 
Hu01G06-138 (antibody, human IgG1, kappa) heavy: not shown light: DIQMTQSPSSLSASVGDRVTITCRTSENLHNYLAWYQQKPGKAPKLLIYDAKTLADGVPSRFSGSGSGTDYTLTISSLQPEDFATYYCQHFWSSPYTFGQGTKLEIKRTVAAPSVFIFPPSDEQLKSGTASVVCLLNNFYPREAKVQWKVDNALQSGNSQESVTEQDSKDSTYSLSSTLTLSKADYEKHKVYACEVTHQGLSSPVTKSFNRGEC |  |  |  |  |  |  | 0.0045 nM | 2.5e-05 s⁻¹ | 7.9e+06 M⁻¹ s⁻¹ | 0.044 nM | 0.0008 s⁻¹ | 1.9e+07 M⁻¹ s⁻¹ | 0.011 nM | 4.1e-05 s⁻¹ | 5.9e+06 M⁻¹ s⁻¹ | 0.025 nM | 5.3e-05 s⁻¹ | 2.3e+06 M⁻¹ s⁻¹
Hu01G06-146 (antibody, human IgG1, kappa) heavy: not shown light: DIQMTQSPSSLSASVGDRVTITCRTSENLHNYLAWYQQKPGKSPKLLIYDAKTLADGVPSRFSGSGSGTDYTLTISSLQPEDFATYYCQHFWSDPYTFGQGTKLEIKRTVAAPSVFIFPPSDEQLKSGTASVVCLLNNFYPREAKVQWKVDNALQSGNSQESVTEQDSKDSTYSLSSTLTLSKADYEKHKVYACEVTHQGLSSPVTKSFNRGEC |  |  |  |  |  |  | 0.011 nM | 5.2e-05 s⁻¹ | 6.5e+06 M⁻¹ s⁻¹ | 0.063 nM | 0.00072 s⁻¹ | 1.1e+07 M⁻¹ s⁻¹ | 0.0093 nM | 2.6e-05 s⁻¹ | 5.3e+06 M⁻¹ s⁻¹ | 0.008 nM | 1.5e-05 s⁻¹ | 2e+06 M⁻¹ s⁻¹
Hu01G06-135 (antibody, human IgG1, kappa) heavy: not shown light: DIQMTQSPSSLSASVGDRVTITCRTSENLHNYLAWYQQKPGKAPKLLIYDAKTLADGVPSRFSGSGSGTDYTLTISSLQPEDFATYYCQHFWSSPYTFGQGTKLEIKRTVAAPSVFIFPPSDEQLKSGTASVVCLLNNFYPREAKVQWKVDNALQSGNSQESVTEQDSKDSTYSLSSTLTLSKADYEKHKVYACEVTHQGLSSPVTKSFNRGEC |  |  |  |  |  |  | 0.01 nM | 6.2e-05 s⁻¹ | 7.3e+06 M⁻¹ s⁻¹ | 0.055 nM | 0.0019 s⁻¹ | 3.7e+07 M⁻¹ s⁻¹ | 0.014 nM | 4.4e-05 s⁻¹ | 5.3e+06 M⁻¹ s⁻¹ | 0.038 nM | 7.9e-05 s⁻¹ | 2.2e+06 M⁻¹ s⁻¹
Hu01G06-127 (antibody, human IgG1, kappa) heavy: not shown light: DIQMTQSPSSLSASVGDRVTITCRTSENLHNYLAWYQQKPGKSPKLLIYDAKTLADGVPSRFSGSGSGTDYTLTISSLQPEDFATYYCQHFWSDPYTFGQGTKLEIKRTVAAPSVFIFPPSDEQLKSGTASVVCLLNNFYPREAKVQWKVDNALQSGNSQESVTEQDSKDSTYSLSSTLTLSKADYEKHKVYACEVTHQGLSSPVTKSFNRGEC |  |  |  |  |  |  | 0.01 nM | 3.6e-05 s⁻¹ | 6.1e+06 M⁻¹ s⁻¹ | 0.051 nM | 0.0021 s⁻¹ | 3.9e+07 M⁻¹ s⁻¹ | 0.018 nM | 4.2e-05 s⁻¹ | 4.6e+06 M⁻¹ s⁻¹ | 0.0095 nM | 1.6e-05 s⁻¹ | 1.8e+06 M⁻¹ s⁻¹
Hu01G06-122 (antibody, human IgG1, kappa) heavy: not shown light: DIQMTQSPSSLSASVGDRVTITCRTSENLHNYLAWYQQKPGKAPKLLIYDAKTLADGVPSRFSGSGSGTDYTLTISSLQPEDFATYYCQHFWSSPYTFGQGTKLEIKRTVAAPSVFIFPPSDEQLKSGTASVVCLLNNFYPREAKVQWKVDNALQSGNSQESVTEQDSKDSTYSLSSTLTLSKADYEKHKVYACEVTHQGLSSPVTKSFNRGEC |  |  |  |  |  |  | 0.0079 nM | 3.4e-05 s⁻¹ | 7.9e+06 M⁻¹ s⁻¹ | 0.063 nM | 0.0014 s⁻¹ | 2.2e+07 M⁻¹ s⁻¹ | 0.0065 nM | 2.1e-05 s⁻¹ | 5.9e+06 M⁻¹ s⁻¹ | 0.01 nM | 2.4e-05 s⁻¹ | 2.3e+06 M⁻¹ s⁻¹

From patent US20160083465A1 (AVEO PHARMACEUTICALS, published 2016)
